The source of these data is PMC13570301 (2026).

What is called Kd is the constant that tells how readily two partners part at equilibrium. The low end stands for higher affinity, the high end for lower affinity.

This assay has as its target UBE2D2 (1–147), from the plasmid pHis//2 Hs UBE2D2 (1–147) (human, UniProt P62837 1-147). Description: BLI. Background: In BLI a coated tip is dipped into the sample, and binding shifts an interference pattern.

Chain of UBE2D2 (1–147), from the plasmid pHis//2 Hs UBE2D2 (1–147) (P62837 whole entry): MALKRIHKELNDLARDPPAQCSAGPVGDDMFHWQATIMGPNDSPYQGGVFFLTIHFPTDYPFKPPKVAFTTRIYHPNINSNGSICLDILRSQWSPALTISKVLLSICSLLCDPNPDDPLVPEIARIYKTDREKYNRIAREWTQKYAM

B1: CHIP wild type, recombinant, C-terminal His tag (pET30-CHIP-His) (enzyme)
chain: MKGKEEKEGGARLGAGGGSPEKSPSAQELKEQGNRLFVGRKYPEAAACYGRAITRNPLVAVYYTNRALCYLKMQQHEQALADCRRALELDGQSVKAHFFLGQCQLEMESYDEAIANLQRAYSLAKEQRLNFGDDIPSALRIAKKKRWNSIEERRIHQESELHSYLSRLIAAERERELEECQRNHEGDEDDSHVRAQQACIEAKHDKYMADMDELFSQVDEKRKKRDIPDYLCGKISFELMREPCITPSGITYDRKDIEEHLQRVGHFDPVTRSPLTQEQLIPNLAMKEVIDAFISENGWVEDY
For the molecule B1, the Kd was 14.3 µM.

B2: CHIP G33S, recombinant, C-terminal His tag (enzyme)
chain: MKGKEEKEGGARLGAGGGSPEKSPSAQELKEQSNRLFVGRKYPEAAACYGRAITRNPLVAVYYTNRALCYLKMQQHEQALADCRRALELDGQSVKAHFFLGQCQLEMESYDEAIANLQRAYSLAKEQRLNFGDDIPSALRIAKKKRWNSIEERRIHQESELHSYLSRLIAAERERELEECQRNHEGDEDDSHVRAQQACIEAKHDKYMADMDELFSQVDEKRKKRDIPDYLCGKISFELMREPCITPSGITYDRKDIEEHLQRVGHFDPVTRSPLTQEQLIPNLAMKEVIDAFISENGWVEDY
B2 yielded a Kd of 24.2 µM.

B3: CHIP P228S, recombinant, C-terminal His tag (enzyme)
chain: MKGKEEKEGGARLGAGGGSPEKSPSAQELKEQGNRLFVGRKYPEAAACYGRAITRNPLVAVYYTNRALCYLKMQQHEQALADCRRALELDGQSVKAHFFLGQCQLEMESYDEAIANLQRAYSLAKEQRLNFGDDIPSALRIAKKKRWNSIEERRIHQESELHSYLSRLIAAERERELEECQRNHEGDEDDSHVRAQQACIEAKHDKYMADMDELFSQVDEKRKKRDISDYLCGKISFELMREPCITPSGITYDRKDIEEHLQRVGHFDPVTRSPLTQEQLIPNLAMKEVIDAFISENGWVEDY
Turning to B3, binding was characterised by a dissociation constant (Kd) of 44.9 µM.
